US20170226155A1 (TRUSTEES OF TUFTS COLLEGE, published 2017)
Where no end group is shown, it is not given here. [ ]: non-standard residue; d: D form. The star is where a group is joined. boroPro = OB(O)[C@@H]1CCCN1*

Assays:
[1] = molecular target: Dipeptidyl amino peptidase type IV (DPP IV); test: cell-based or functional assay
[2] = molecular target: Dipeptidyl amino peptidase type IV (DPP IV); test: cell-based or functional assay; remark: listed apart in the source

Row | Binder | IC50 at ten minutes, pH 2 [1] | IC50, pH 2 (Tetrapeptide Prodrugs) [2] [mM] | IC50, pH 8 (Tetrapeptide Prodrugs) [2] [mM] | IC50 at ten minutes, pH 8 [1] [nM]
1 | AAP[boroPro] [AlaAlaProboroPro] | 3 µM | 3 | 2 | –
2 | YPF[boroPro] [TyrProPheboroPro] | 50 nM | – | – | 60
